According to the supplement of paper PMC7125110:
± gives the standard error. Fewer inactive variants are shown than the library holds.

B1: glmS ribozyme (parent)
chain: AUAAAAGCGCCAGAACUACAGAAAUGUAGUUGACGAGGAGGAGGUUUAUCGAAUUUUCGGCGGAUGCCUCCAAA

What was measured:
Details in all cases: with glucosamine-6-phosphate
glucosamine-6-phosphate [1] = variants of: B1; assay: self-cleavage kobs at 40 uM GlcN6P; higher = faster cleavage; RNA array
How it was run: (§1)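 Barcoded ribozyme variants were transcribed in situ on sequenced MiSeq chips by E. coli RNA polymerase. At 37 °C, a hybridised Cy3 probe tracked them while glucosamine-6-phosphate (40 μM to 10 mM) in HEPES/KCl/Mg(OAc)2 buffer flowed in and tiles were imaged over ~14 h. Per-tile medians of signals normalised to baseline and to non-cleaving reference variants were fit to one- or two-exponential decays, giving kobs. kcat and KM came from weighted Michaelis–Menten fits across concentrations.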

glucosamine-6-phosphate [2] = variants of: B1; assay: self-cleavage kobs at 10000 uM GlcN6P; higher = faster cleavage; RNA array
How it was run: as §1

glucosamine-6-phosphate [3] = variants of: B1; assay: self-cleavage kobs at 160 uM GlcN6P; higher = faster cleavage; RNA array
How it was run: as §1

glucosamine-6-phosphate [4] = variants of: B1; assay: self-cleavage kobs at 640 uM GlcN6P; higher = faster cleavage; RNA array
How it was run: as §1

glucosamine-6-phosphate [5] = variants of: B1; assay: self-cleavage kobs at 2500 uM GlcN6P; higher = faster cleavage; RNA array
How it was run: as §1

Row | Variant | self-cleavage kobs at 40 uM GlcN6P (glucosamine-6-phosphate [1]) [s⁻¹] | self-cleavage kobs at 10000 uM GlcN6P (glucosamine-6-phosphate [2]) [s⁻¹] | self-cleavage kobs at 160 uM GlcN6P (glucosamine-6-phosphate [3]) [s⁻¹] | self-cleavage kobs at 640 uM GlcN6P (glucosamine-6-phosphate [4]) [s⁻¹] | self-cleavage kobs at 2500 uM GlcN6P (glucosamine-6-phosphate [5]) [s⁻¹]
1 | AUAAAAGCCCCAGAACUACAGAAAUGUAGUUGACGAGGAGGAAGUUUAUCGAAUUUUCGGCGGAUGCCUCCAAA [G9C G43A] | < 1e-05 | < 1e-05 | – | – | –
2 | AUAAAAGCGCCAGAACUACAGAAAUGUAGUUGACGAGGAUGAGUUUUAUCGAAUUUUCGGCGGAUGCCUCCAAA [G40U G44U] | < 1e-05 | – | < 1e-05 | < 1e-05 | –
3 | AUAAAAGCGCCAGACCUACAGAAAUGUAGUUGACGAGGAGGAGGUUUAUCGAAUUUUCGGAGGAUGCCUCCAAA [A15C C61A] | < 1e-05 | < 1e-05 | – | – | –
4 | AUAAAAGCGCCAGAACUACAGAAAUGUAGUUGACGAGGAGGAGGUUUAUGGAAUUUUAGGCGGAUGCGUCUAAA [C50G C58A C68G C71U] | 9.15e-05 ± 1.8e-05 | 0.00024 ± 5.2e-05 | – | – | –
5 | AUAAAAGCGCCUGAACUACAGAAAUGUAGUUGACGAGGAGGAGGUUUAUCGAAUUUUCGGCUGAUGCCUUCAAA [A12U G62U C70U] | < 1e-05 | < 1e-05 | – | – | –
6 | AUAAAAGCGCCAUAACUACAGAAAUGUAGUUGACAAGGAGGAGGAUUAUCGAAUUUUCGGCGGGUGCCUCCAAA [G13U G35A U45A A64G] | < 1e-05 | < 1e-05 | – | < 1e-05 | < 1e-05
7 | AUAAAAGCGCCAGAACUACAGAAAUGUAGUUGACGAGGAGGAGGUUUAUCGAAUUUUCGGCGCAUGCCUCCAAA [G63C] | < 1e-05 | < 1e-05 | < 1e-05 | < 1e-05 | < 1e-05
8 | AUAAAAGCGCCAGAACUACAGAAAUGUAGUUGACGAGGAGGAGGUUUAUCGACUUUUCGGCGUAUGGCGCCAAA [A53C G63U C67G U69G] | < 1e-05 | – | – | – | –
9 | AUAAAAGCGCCAGAACUACAGAAAUGUAGUUGACGAGGAGGUGGUUUAUCAAAUUUUCGGCGGAUGCCUCCAAA [A42U G51A] | < 1e-05 | – | – | < 1e-05 | –
10 | AUAAAAGCGCCAGAACUACAGAAAUGUAGUUGACGAGGAGGAGGUUUUUUGAAUUUUAGGCGGAUGCCUCCAAA [A48U C50U C58A] | < 1e-05 | – | < 1e-05 | < 1e-05 | –
11 | AUAAAAGCGCGAGAACUACAGAAAUGUAGUUGACGAGGAGGAGGUUUGUCGAAUUUUCGGCGGAUGCCUCCAAA [C11G A48G] | < 1e-05 | < 1e-05 | < 1e-05 | < 1e-05 | < 1e-05
12 | AUAAAAGCGCCAGAACUACAGAAAUGUAGUUGACGAGUAGGAGGUUUAUCGAAUUUUCGGCGGAUGCCUGCAAA [G38U C70G] | 2.71e-05 ± 1e-05 | – | 0.000289 ± 9.3e-05 | 0.000298 ± 0.00014 | –
13 | AUAAAAGCGCCAGAACUACAGAAAUGUAGCUGACGAGGAGGUGAUUUGUCGAAUUUUCAGCGGAUGCCUCCAAA [U30C A42U G44A A48G G59A] | < 1e-05 | – | – | – | < 1e-05
14 | AUAAAAGCGCCAGAACUACAGAAAUGUAGUUGACGAGUAGGAGGGUUAUCGAAUUUUCGGCGGAUGUCUCCAAA [G38U U45G C67U] | < 1e-05 | < 1e-05 | – | – | –
15 | AUAAAAGCGCCAGAGCUACAGAAAUGUAGGUGGCGAGGAGGAGGUUUCUCGAAUUUUCGGCGGAUGCCUCCAAA [A15G U30G A33G A48C] | < 1e-05 | – | – | – | –
